Here are results for one substance from article PMC10804666.

Assay [1] concerns the target Biotinylated human serum albumin (Homo sapiens) (UniProt P02768). Description: flow cytometry on cells; yeast surface titration at pH 7.4: NbAlb1 displayed on yeast (2 x 10^5 cells per well), ten concentrations of soluble biotinylated SA from 30 pM to 1 μM, 1 h at 4°C, PBS pH 7.4 with 0.01% w/v casein, NeutrAvidin DyLight 650, MFI; three independent experiments. Background: A flow cytometer gives signals particle by particle.

Assay [2] concerns the target Biotinylated recombinant mouse serum albumin (Mus musculus) (UniProt P07724). The assay is described as above.

On to “NbAlb1 displayed on the surface of yeast as NbAlb1-(G4S)3-HA-pStalk fusion protein (VHH)”, for which the Kd (as a rule, the constant that tells how readily two partners part at equilibrium) turned out to be 6.6 nM in assay [1] and 54.5 nM in assay [2].
